In test [1] the target is HMG20b (human (endogenous in 293T and HeLa)) (UniProt Q9P0W2). In words: co-IP.
The target in another test is T1, His-HMG20b (human, UniProt Q9P0W2 1-317).
T1 sequence: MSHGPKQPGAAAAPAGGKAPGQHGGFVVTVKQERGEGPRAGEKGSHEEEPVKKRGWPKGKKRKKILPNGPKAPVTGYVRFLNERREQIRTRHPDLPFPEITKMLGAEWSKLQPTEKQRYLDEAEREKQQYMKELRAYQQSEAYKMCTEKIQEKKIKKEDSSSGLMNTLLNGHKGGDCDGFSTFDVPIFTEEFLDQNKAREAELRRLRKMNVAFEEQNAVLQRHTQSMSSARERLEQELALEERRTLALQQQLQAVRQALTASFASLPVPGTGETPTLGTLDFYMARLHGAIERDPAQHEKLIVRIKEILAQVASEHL
In words: pull-down.

Ends that are not written are not given here.

BRCA2, P51587 1-3418 yielded a fraction of the protein present in the complex in test [1] below 5%.

B1: Biotin-labelled BRC5 peptide (BRCA2 1661-1695) (peptide)
peptide: YSVIENSALAFYTSCSRKTSVSQTSLLEAKKWLRE
modifications: also: biotin label, position not given here
For the molecule B1, the binding result with His-HMG20b was “binds”.

Source of the values: PMC3145889 (Oncogene, 2011).
